Our source for the Kd values is PMC7615972.

The Kd is the free concentration of one partner at which half of the binding sites on the other are occupied at equilibrium, for simple one-to-one binding. Higher therefore signals lower affinity.

What all share (test): SPR; mouse CACHD1ECD as analyte; FZD CRDs or LRP6 fragments immobilised; equilibrium dissociation constants
(Surface plasmon resonance follows binding to a sensor surface in real time, without labels.)

The target of experiment [1] is human FZD7 cysteine-rich domain (FZD7CRD) (human) (UniProt O75084).
The target of experiment [2] is human LRP6 membrane distal fragment (LRP6_(P1E1P2E2)) (human) (UniProt O75581).
Sequence of human LRP6 membrane distal fragment (LRP6_(P1E1P2E2)) (human) (O75581 20-1613): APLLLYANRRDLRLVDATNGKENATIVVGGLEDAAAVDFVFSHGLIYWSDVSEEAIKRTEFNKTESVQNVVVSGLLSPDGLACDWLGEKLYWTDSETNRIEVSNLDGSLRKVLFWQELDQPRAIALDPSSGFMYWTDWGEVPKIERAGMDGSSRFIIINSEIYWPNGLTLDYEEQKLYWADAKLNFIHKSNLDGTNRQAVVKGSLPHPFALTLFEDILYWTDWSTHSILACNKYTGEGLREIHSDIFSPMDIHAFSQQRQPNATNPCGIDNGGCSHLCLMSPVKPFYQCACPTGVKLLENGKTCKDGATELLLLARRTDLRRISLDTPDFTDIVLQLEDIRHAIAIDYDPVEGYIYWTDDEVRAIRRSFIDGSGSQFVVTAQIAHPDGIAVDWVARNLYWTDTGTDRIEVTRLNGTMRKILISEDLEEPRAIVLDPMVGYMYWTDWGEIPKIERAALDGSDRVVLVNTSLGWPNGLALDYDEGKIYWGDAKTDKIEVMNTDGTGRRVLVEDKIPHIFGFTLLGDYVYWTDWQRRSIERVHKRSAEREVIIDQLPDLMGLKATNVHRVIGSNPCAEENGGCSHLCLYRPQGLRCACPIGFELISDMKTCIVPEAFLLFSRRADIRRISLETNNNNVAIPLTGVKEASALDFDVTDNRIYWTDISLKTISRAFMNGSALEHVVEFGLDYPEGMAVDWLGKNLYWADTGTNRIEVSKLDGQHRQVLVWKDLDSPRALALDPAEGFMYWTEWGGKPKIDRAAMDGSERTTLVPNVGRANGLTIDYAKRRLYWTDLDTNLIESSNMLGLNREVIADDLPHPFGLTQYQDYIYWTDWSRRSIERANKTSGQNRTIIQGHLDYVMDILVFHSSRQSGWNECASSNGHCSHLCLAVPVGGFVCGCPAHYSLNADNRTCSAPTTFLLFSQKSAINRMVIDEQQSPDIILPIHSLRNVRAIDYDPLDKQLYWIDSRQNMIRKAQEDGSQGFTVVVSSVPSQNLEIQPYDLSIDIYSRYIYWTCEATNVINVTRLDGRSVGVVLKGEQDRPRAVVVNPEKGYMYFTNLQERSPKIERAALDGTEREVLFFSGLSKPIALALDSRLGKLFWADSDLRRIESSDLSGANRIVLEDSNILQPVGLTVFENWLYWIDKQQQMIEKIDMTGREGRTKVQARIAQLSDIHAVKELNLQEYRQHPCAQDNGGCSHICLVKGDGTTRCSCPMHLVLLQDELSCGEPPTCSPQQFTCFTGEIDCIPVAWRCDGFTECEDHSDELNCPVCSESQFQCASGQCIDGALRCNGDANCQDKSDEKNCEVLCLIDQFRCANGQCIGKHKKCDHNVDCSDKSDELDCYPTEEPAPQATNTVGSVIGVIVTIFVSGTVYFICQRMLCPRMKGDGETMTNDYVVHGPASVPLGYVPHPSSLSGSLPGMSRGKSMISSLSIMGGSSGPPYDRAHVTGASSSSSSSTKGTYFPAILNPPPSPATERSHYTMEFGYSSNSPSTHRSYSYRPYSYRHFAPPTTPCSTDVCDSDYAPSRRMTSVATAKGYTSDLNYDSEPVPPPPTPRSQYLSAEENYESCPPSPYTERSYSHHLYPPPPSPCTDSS
Experiment [3] concerns the target human FZD8 cysteine-rich domain (FZD8CRD) (human) (UniProt Q9H461).

Sequence of purified mouse CACHD1 extracellular domain (CACHD1ECD) (Q6PDJ1 50-1109): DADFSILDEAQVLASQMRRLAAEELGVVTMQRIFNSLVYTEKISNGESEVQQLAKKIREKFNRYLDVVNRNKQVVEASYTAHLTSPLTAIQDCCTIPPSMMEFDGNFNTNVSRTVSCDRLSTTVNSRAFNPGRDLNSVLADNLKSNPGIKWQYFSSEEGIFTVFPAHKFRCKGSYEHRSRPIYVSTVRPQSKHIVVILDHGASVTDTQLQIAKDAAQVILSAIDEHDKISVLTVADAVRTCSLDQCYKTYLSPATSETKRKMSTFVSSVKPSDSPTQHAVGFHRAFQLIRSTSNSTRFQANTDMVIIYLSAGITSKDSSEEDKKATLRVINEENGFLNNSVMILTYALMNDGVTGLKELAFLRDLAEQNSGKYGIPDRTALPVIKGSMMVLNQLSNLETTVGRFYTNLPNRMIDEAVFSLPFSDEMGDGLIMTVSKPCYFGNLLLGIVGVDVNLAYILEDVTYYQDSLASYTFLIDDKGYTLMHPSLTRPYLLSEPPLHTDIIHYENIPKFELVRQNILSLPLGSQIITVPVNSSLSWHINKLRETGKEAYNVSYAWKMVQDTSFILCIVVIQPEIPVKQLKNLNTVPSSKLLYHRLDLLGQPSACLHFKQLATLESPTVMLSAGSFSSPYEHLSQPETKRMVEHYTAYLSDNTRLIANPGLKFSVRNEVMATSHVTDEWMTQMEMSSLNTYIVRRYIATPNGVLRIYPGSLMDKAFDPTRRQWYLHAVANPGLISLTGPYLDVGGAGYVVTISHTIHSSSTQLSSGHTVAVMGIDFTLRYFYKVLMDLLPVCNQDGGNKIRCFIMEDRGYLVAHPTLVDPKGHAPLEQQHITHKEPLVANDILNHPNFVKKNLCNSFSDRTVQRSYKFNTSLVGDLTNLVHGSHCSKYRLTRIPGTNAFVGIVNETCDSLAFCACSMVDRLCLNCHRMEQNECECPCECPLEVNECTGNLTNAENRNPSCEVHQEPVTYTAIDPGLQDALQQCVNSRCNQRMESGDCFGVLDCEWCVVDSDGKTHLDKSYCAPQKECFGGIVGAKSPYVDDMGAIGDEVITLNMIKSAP
Sequence of human FZD8 cysteine-rich domain (FZD8CRD) (human) (Q9H461 28-694): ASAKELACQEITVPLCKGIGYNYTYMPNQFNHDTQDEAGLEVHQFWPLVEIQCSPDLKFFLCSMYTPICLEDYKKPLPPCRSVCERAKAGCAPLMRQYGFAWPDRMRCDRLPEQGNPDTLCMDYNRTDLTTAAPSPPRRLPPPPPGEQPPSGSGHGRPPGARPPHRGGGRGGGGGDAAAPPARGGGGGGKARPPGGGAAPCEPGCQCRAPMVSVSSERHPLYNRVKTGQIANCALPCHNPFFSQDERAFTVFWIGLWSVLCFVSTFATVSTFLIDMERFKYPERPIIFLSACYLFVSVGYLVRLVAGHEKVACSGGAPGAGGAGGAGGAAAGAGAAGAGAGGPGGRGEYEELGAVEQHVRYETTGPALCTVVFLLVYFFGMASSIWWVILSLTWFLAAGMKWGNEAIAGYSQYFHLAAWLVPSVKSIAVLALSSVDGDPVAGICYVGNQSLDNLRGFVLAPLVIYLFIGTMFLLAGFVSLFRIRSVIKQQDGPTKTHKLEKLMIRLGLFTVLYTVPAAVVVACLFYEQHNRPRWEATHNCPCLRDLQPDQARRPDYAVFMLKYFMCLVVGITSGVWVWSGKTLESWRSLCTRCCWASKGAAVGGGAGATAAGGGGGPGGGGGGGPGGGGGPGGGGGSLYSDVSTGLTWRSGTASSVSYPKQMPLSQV

Consider “purified mouse CACHD1 extracellular domain (CACHD1ECD) (from UniProt Q6PDJ1 50-1109) (domain or fragment)”, for which the results for the Kd in experiment [1], in experiment [2] and in experiment [3] were 14.2 µM, 5.86 µM and 0.95 µM, respectively.
